{
  "source": "paper PMC2132604",
  "molecular_target": "p130^Cas, endogenous in CHO cells (Chinese hamster (endogenous in CHO))",
  "assay": "co-IP",
  "data": [
    {"substance": "FAK P712/715A double point mutant, epitope-tagged, expressed from pCDM8-P712/715A in CHO cells (from UniProt Q00944 1-1053) (enzyme)", "values": [
      {"measurement": "reduction of association relative to wild-type FAK (densitometry)", "value": 50, "unit": "%"}
    ]}
  ]
}
